Test results published in patent US9872921B2, “DE-N-acetyl sialic acid antigens, antibodies thereto, and methods of use in cancer therapy” (priority 2004, dated 2018).

Legend:
[1] = system: SK-MEL 28 cells; experiment: Cell viability by ViaCount Reagent flow cytometry; type: cell-based, human
Procedure: Cell viability of SK-MEL 28 cells incubated in the presence of SEAM 3 or control mAbs (irrelevant isotype IgG2b or anti-GD3, R24) was determined using ViaCount Reagent (Guava Technologies, Hayward, Calif.), as per manufacturers instructions. […] The viability was analysed using a pre-set program on the Guava EasyCyte flowcytometer. The program has a preset gate for apoptosis and this was routinely incorporated into our studies.

[2] = system: normal tissues; experiment: Immunohistochemistry on micro array of normal tissues; design: species or system human; settings: 17 samples
Procedure: Human tissue microarrays were obtained from US BioMax (Rockville, Md.). The tissue microarrays were deparaffinized in xylene (2 changes, 10 minutes each) then rehydrated by sequential 5 minute washes in 100% ethanol, 95% ethanol, 70% ethanol, 50% ethanol, and PBS buffer. Endogenous peroxidase was blocked by incubation with Peroxidazed 1 solution (Biocare, Concord, Calif.) for 5 minutes at ambient temperature. The sections were blocked with Terminator (Biocare) containing streptavidin then rinsed with PBS buffer. The primary antibody (purified SEAM 3 (vide infra), irrelevant IgG2b control, etc. at concentrations of 1 to 5 μg/ml)) was diluted in Da Vinci Green dilution buffer (Biocare) and incubated either overnight at 4 degrees C. or for 1 hour at ambient temperature. The slides were washed 3 times for 10 minutes each with PBS buffer then incubated with biotin conjugated rabbit anti-mouse IgG secondary antibody (5 μg/ml, Vector Labs, Burlingame, Calif.) for 30 minutes at ambient temperature. After washing 3 times for 10 minutes each with PBS buffer, horse radish peroxidase-streptavidin conjugate (Vector Labs) was added and incubated at ambient temperature for 30 minutes. The slides were washed 3 times for 10 minutes each with PBS buffer and incubated with AEC substrate (Vector Labs) containing hydrogen peroxide for color development. […]

[3] = system: SK-MEL 28 cells; experiment: Flow cytometry double labeling of SEAM 3 binding and Ki-67 antigen; type: cell-based, human
Procedure: Cells were processed by the same procedures used to measure SEAM 3 binding in the absence of Triton. After unbound SEAM 3 had been washed away, cells were treated with 3% (v/v) goat serum containing 0.5% Triton to allow entry of an anti-Ki-67 antibody. After 1 h at 4° C., an anti-Ki-67 was added and incubated on-ice for 2 hours. Cells were then collected by centrifugation, washed twice with PBS, and two fluorescently labeled goat anti-mouse secondary antibodies were added, anti IgG2b-Alexa Flour 594 (Invitrogen); anti-IgM-Alexa Flour 488 (Invitrogen). After extensive washing, cells were analyzed on a Guava EasyCyte flow cytometer.

[4] = system: CHP-134 neuroblastoma; settings: approximately proportional to level of antigen on cell surface
[5] = system: human melanomas; experiment: Immunostaining of frozen sections of human melanomas; settings: frozen unfixed sections, 400× magnification
Procedure: To determine whether there is a difference in expression of SEAM 3-reactive antigen between normal melanocytes and melanoma tumor cells, immuno-staining of thin sections of each type of tissue were performed. In addition to SEAM 3, controls included the secondary antibody alone and R24, which binds to the ganglioside GD3 that is expressed in normal melanocytes and is overexpressed in some melanomas (Dippold et al. Proc Natl Acad Sci USA, 1980. 77(10): 6114-8.; Graus, et al., Brain Res, 1984. 324(1): 190-4; Houghton et al. Proc Natl Acad Sci USA, 1985. 82(4):1242-6; Panneerselvam et al. J Immunol, 1986. 136(7): 2534-41; Real et al. Cancer Res, 1985. 45(9): 4401-11; Vadhan-Raj et al. J Clin Oncol, 1988. 6(10): 1636-48; Welt t al. Clin Immunol Immunopathol, 1987. 45(2): 214-29).
The tissue sections were made from frozen samples of normal skin (HuSkinTb111 in FIG. 39) and two human melanomas (HuMel1151 and HuMel4034). To prevent the possibility of blocking de-N-acetyl antigen or extracting a lipid containing the antigen, the sections were prepared from frozen tissue and were dried onto the slides but not fixed with aldehydes or organic solvents (Chammas et al. Cancer Res, 1999. 59(6): 1337-46). […] Bound antibody was then detected using the DAKO LSAB kit following the manufacturer's directions (Thermo Fisher Scientific, Waltham, Mass.). […]

B1: SEAM 3: murine anti-N-Pr NmB polysaccharide monoclonal antibody (IgG2b), ATCC Deposit No. HB-12170 (antibody, V domains shown)
VH: EVKLQESGGGLVQPGDSLSLSCAASGFTFTPYYMGWVRQPPGKALEWLGYIRNKANGYTTEYSASVKGRFTISRDNSQSILYLQMNALRAEDSATYYCARYARGTVDSWGQGTTLTVS
VL: DIVMTQSPLTLSVTIGQPASISCKSSQSLLHSNGKTYLNWLLQRPGQSPKLLIYLVSKLESGVPDRFSGSGSGTDFTLKISRVEAEDLGLYYCLQIIHFPHTFGAGTKLELKRA
modifications: mouse
Q: How did the “number of viable cells compared to irrelevant IgG2b control mAb” value ([1]; 5 μg/ml, 24 h incubation) turn out when B1 was run?
A: Its value is “significantly decreases the number of viable cells”.

Q: And the “number of apoptotic cells compared to IgG2b control mAb” value ([1]; 5 μg/ml, 48 h)?
A: Its value is “increases the number of apoptotic”.

Q: And the “number of dead cells compared to IgG2b control mAb” value ([1]; 5 μg/ml, 48 h)?
A: Its value is “increases”.

Q: And the “number of viable cells compared to IgG2b control mAb” value ([1]; 5 μg/ml, 48 h)?
A: Its value is “decreases the number of viable cells”.

Q: And the cytotoxic effect ([1]; SK-MEL-28 melanoma, approximately proportional to level of antigen on cell surface)?
A: The cytotoxic effect was “cytotoxic effect of SEAM 3 was observed”.

Q: What about the “normal tissue samples positive for binding” value [2] of the same molecule?
A: Its value is 15 of 17.

Q: What about the “staining grade in positive normal tissue samples” value [2] of the same molecule?
A: The value was “+ to ++”.

Q: And the “cells expressing SEAM 3-reactive antigen on their surface” value ([3]; cells in exponential growth phase, flow cytometry and fluorescence microscopy)?
A: The value was “approximately 20%”.

Q: What about the “cells expressing both Ki-67 and SEAM 3-reactive antigen on their surface” value ([3]; double labeling) of the same molecule?
A: The value was “approximately 11%”.

Q: And the “cells that only express SEAM 3-reactive antigen” value ([3]; double labeling)?
A: Its value is 13%.

Q: And the cytotoxic effect [4]?
A: Its cytotoxic effect is “cytotoxic effect of SEAM 3 was observed”.

Q: What about the “immunostaining of two human melanomas” value [5] of the same molecule?
A: The value was “staining is weaker but nearly all of the melanoma cells are stained”.
